Data on one protein can be found in paper PMC6662615 (Biochemistry, 2019).

The data set concerns the molecule itself. The data set can be described thus: dynamic light scattering.

B1: recombinant human αB-crystallin (natural protein, UniProt P02511 1-175, looked up)
chain: MDIAIHHPWIRRPFFPFHSPSRLFDQFFGEHLLESDLFPTSTSLSPFYLRPPSFLRAPSWFDTGLSEMRLEKDRFSVNLDVKHFSPEELKVKVLGDVIEVHGKHEERQDEHGFISREFHRKYRIPADVDPLTITSSLSSDGVLTVNGPRKQVSGPERTIPITREEKPAVTAAPKK
For the protein B1, the binding result is “binds”.
